Measured values from the supplement of paper PMC9170038.

Tested on: MS2 coat protein
Assay: apparent KD of MS2 coat protein; designed switch direction (-1 OFF switch, 1 ON switch): -1; higher = weaker reporter binding
Summary of the method: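 Designed RNA switches with common flanks were transcribed on Illumina chips by stalled E. coli RNA polymerase and titrated with SNAP-549-labelled MS2 coat protein, from 0.7 or 1.5 nM doubling to 3 µM, in Tris-HCl pH 7.5 buffer with KCl, MgCl2, BSA, DTT, tRNA and Tween-20. Steps lasted 0.8–1.5 h (lowest) to 10–20 min (highest). Titrations ran without input, with 200 uM small-molecule ligand, or with an oligonucleotide input. Normalised cluster fluorescence was curve-fitted, and apparent KD is the per-design median over clusters.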

[1] = input ligand: microRNA oligo, concentration not stated
[2] = Eterna round: R95, input ligand: FMN 200 uM
[3] = Eterna round: R95, input ligand: microRNA oligo, concentration not stated
[4] = Eterna round: R95, input ligand: none

Sequence | apparent KD of MS2 coat protein (input ligand: FMN 200 uM) [nM] | apparent KD of MS2 coat protein [1] [nM] | apparent KD of MS2 coat protein (input ligand: none) [nM] | apparent KD of MS2 coat protein [2] [nM] | apparent KD of MS2 coat protein [3] [nM] | apparent KD of MS2 coat protein [4] [nM]
UUUAAGGGAAUUAAGAUCACAUGAGGAUCACCCAUGUAUAUAUAGGAUAUCAGCUCGUUUAGAGCUGAGAAGGAUAUAUACAUA [ExNG3/6-A2] (Eterna round: R96, puzzle: Exclusion NG 3) | 162 | 83.8 | 155 |  |  | 
AAGAAAAGGAGAGGAUAUGCGAAAGGAAGUGUAGCAGAAGGCUUCGGGUAAGUCCACAUGAGGAUCACCCAUGUUAAUAAAAGA [PowerStrip EXNG 1.19] (Eterna round: R96, puzzle: Exclusion NG 1) | 345 | 290 | 436 |  |  | 
UUAAAUCAUGUAGGAUAUGCAAGGCGAACCUAUGCAGAAGGACAUGAGGAUCACCCAUGUGCUGCGGUCUGCGUACAGAUCGCU [JL ENG1 1.02] (Eterna round: R96, puzzle: Exclusion NG 1) | 503 | 30.7 | 39 |  |  | 
CAUCAGAUAGGAUAUACAGGCCCGUCUUUAUAUUGAUCCCGACAUGAGGAUCACCCAUGUAGAAGGAUCAGAUG [Mod 27 - Jieux - Exclusion 2] (Eterna round: R97, puzzle: Exclusion 2) | 21.2 |  | 16.1 |  |  | 
ACAUGAGGAUCACCCAUGUUAUGUUGGGUACUAAAUUAUUCGUAGGAUAUCGUAGCUAGUUUGUGCGAGAAGGACGCAGUUUUU [JR_ExcNG3_Sub060] (Eterna round: R96, puzzle: Exclusion NG 3) |  | 202 |  |  |  | 
CCACGGUGAGGAUAUCAAAGAUUGCGCUCGGAAGGUCAAUUUGAGAAGGCACAUGAGGAUCACCCAUGUUAGCG [Eternabot (L2) Solution 40] (Eterna round: R97, puzzle: Exclusion 4) | 29.8 |  | 34.6 |  |  | 
UUUAAUUUUUUUUUUUUACAAGCUUUUUGCUCGUCUUAUACAUGAGGAUCACCCAUGUAGGUGGGAAGUAAAUUAUC [JMF 57] (puzzle: Sensor v3, turn-off variant 2) |  |  |  | 33 | 97.5 | 37.5
GUUAAACAUGAGGAUCACCCAUGUAAGGAUAUGCUGAGGUAGAGAUGAAGUGAAUGAAGCAGAAGGUACAAAUG [Mat - Mod of JL D64] (puzzle: Exclusion 1) |  |  |  | 51.5 | 83.2 | 113
GGAGUUAGAGAGGAUAUGGAGGAGAGGCCAAUUCCAGAAGGUUCAACAUGAGGAUCACCCAUGUAUUUUCCUCA [AK-MS2ROC-r4-exclusion6-2] (Eterna round: R97, puzzle: Exclusion 6) | 25.6 |  | 33.8 |  |  | 
UUGAUGUGAGGAUAUAUAUGGUUGUUUUUUUAUUUUUUAUUACUUGAGGAUCACCCAAGUAGAAGGCGCUACGU [JR_Ex2_Sub068] (Eterna round: R97, puzzle: Exclusion 2) | 25.5 |  | 29.5 |  |  | 
AUUUUGUCAGGAUAUGAGUAGUAGGACGAAAGUGUUAUUAUUUAGAAGGGACAUGAGGAUCACCCAUGUUCCUC [Bring Us a Shrubbery-03] (puzzle: Exclusion 4) |  |  |  |  | 12.1 | 
AUUGUUUAUGUAGGAUAUGCCUGGCGUGCCUUCGCAGAAGGACAUGAGGAUCACCCAUGUAUUGCGGUCUGCGUUCAGAUCGCU [salish99_ExNG1_r4_025] (Eterna round: R96, puzzle: Exclusion NG 1) | 75 | 30.6 | 55.4 |  |  | 
ACAUGAGGAUCACCCAUGUCUGGCUGGUCUGCUCCGGUUGUUGAGGAUAUAGUUCGGUGUUCGCGCUAGAAGGUGAGGGCUGGA [Aenatbe mod 39] (Eterna round: R96, puzzle: Exclusion NG 3) | 260 | 139 | 176 |  |  | 
UUUGGGCAAGCAUGAUCCCACAUGAGGAUCACCCAUGUGUUCGUCUUAUAGGCUGCUGAGGCUUUUGCCUCGGUGGC [LRO Sensor-off var1-01 loose mod of D91 from Mat747] (Eterna round: R97, puzzle: Sensor, turn-off variant 1) | 751 |  | 965 |  |  | 
ACAAGCUUUUUGUUCGUCUUAUAAUAAUAAAUAAAUAUAACAUGAGGAUCACCCAUGUUGAGAAGACAGCCUCAUGU [Sesor Array 23 - Jieux - Sensor v3, turn-off variant 2] (puzzle: Sensor v3, turn-off variant 2) |  |  |  | 121 | 42.7 | 104
UGUUGUCGCGCAGGAUAUUGUCAACAGGCAGUAGGAUAUCCGAAAGGAGAAGGACCGCCAACAGGCGAGAAGGGCGGGACAACU [pwkr exNG2 2xF7 2xFMN.9] (Eterna round: R96, puzzle: Exclusion NG 2) | 32.1 | 35.7 | 16 |  |  | 
GUAUGUGACGAGGAUAUCACCUUGUUACUUAGAUGAGAAGGCGUCACAUGAGGAUCACCCAUGUGAUGAAAAGA [EX6 A.14] (Eterna round: R97, puzzle: Exclusion 6) | 27.4 |  | 21.4 |  |  | 

Sequence | apparent KD of MS2 coat protein (input ligand: FMN 200 uM) [nM] | apparent KD of MS2 coat protein [1] [nM] | apparent KD of MS2 coat protein (input ligand: none) [nM] | apparent KD of MS2 coat protein [2] [nM] | apparent KD of MS2 coat protein [3] [nM] | apparent KD of MS2 coat protein [4] [nM]
ACACGGAUAGGAUAUACUUGAGGAUCACCCAAGUGGAACCGCUUGUCCCGAUCCUAGAGUAGAAGGAUCAAAUA [Anusxebiat] (Eterna round: R97, puzzle: Exclusion 3) | 149 |  | 44.3 |  |  | 
CAACAACGAGGAUAUACAUGAGGAUCACCCAUGUAAGAAAAGACAUAAACCGCCUGGUGUAGAAGGCGUAAAAC [Xeonesar] (Eterna round: R97, puzzle: Exclusion 3) | 25.2 |  | 38.2 |  |  | 
AAUUAUUUUUGAGGAUAUGGUGGUGAAACACCACCAGAAGGCGAAAUAAACAUGAGGAUCACCCAUGUGAGCCUGAUGCUUAUG [Ex NG1 #48] (Eterna round: R96, puzzle: Exclusion NG 1) |  | 19.9 |  |  |  | 
UCUUAUUGCAAGGAUAUGCUAUUUAUUUUUUUUGCAGAAGGUGCAACAUGAGGAUCACCCAUGUUUCCGGGCAU [JR_E6_Sub036] (puzzle: Exclusion 6) |  |  |  |  | 20.3 | 
UUUUUGUGAGGAUAUCAGUAGUAGAACAAUAGUACUACUACUGAGAAGGCACAUGAGGAUCACCCAUGUUCCUU [Fiskers Ex 4 Super stable 44 mod 12] (puzzle: Exclusion 4) |  |  |  |  | 14.9 | 
UAUUUAAUUAACAAGCUUUACAUGAGGAUCACCCAUGUGAUCAUGCUCGUCUUAUAAUUAAUUAAUUAAUUAAUUAA [Stov1/6-A2] (Eterna round: R97, puzzle: Sensor, turn-off variant 1) | 51.6 |  | 62.8 |  |  | 
GCCGGAGCAGGAUAUUCAAUAUCACACAUGAGGAUCACCCAUGUCCAGCGAAAGCUGGAGGGAGAAGGGCUCUGGC [Fiskers Ex 5 - 15] (puzzle: Exclusion 5) |  |  |  |  | 56.1 | 
UGCGAGUAAGGAUAUUCGCGACCGUUCACAAGAACGGUCGAGAAGAAGGUACUUGAGGAUCACCCAAGUCCUAG [Leonxegece] (Eterna round: R97, puzzle: Exclusion 4) | 103 |  | 24.2 |  |  | 
UUAAUUAAUUAAUUAGAUCCUCACAUGAGGAUCACCCAUGUGCAGGAUAUCAGCUCGAUUAGAGCUGAGAAGGGCACUAUUAAU [ExNG3/10-B4] (Eterna round: R96, puzzle: Exclusion NG 3) | 56.1 | 85 | 127 |  |  | 
ACAACAAGCUUUUUGUUCGUAGAACAUGAUGCUCUAGUCACAUGAGGAUCACCCAUGUCAGCCAGUUAGAUAGGUGA [JR_SV3TOV2_Sub064] (puzzle: Sensor v3, turn-off variant 2) |  |  |  | 75.2 | 133 | 81.1
GAGGCAUGCUGAGGUCCACACAUGAGGAUCACCCAUGUAAUGACAAGCUUUUUACUCAUCUUAUCGCUAUCGCGUUC [Tiinarre] (puzzle: Sensor v3, turn-off variant 1) |  |  |  | 19.1 | 66.6 | 16.3
AUCAGCUCGUCAGGAUAUAUUAACAUGAGGAUCACCCAUGUAAGAUCAGGCUUCGGCCAAUGUUAAUAGAAGGGACGAGCUGAU [ENG2/12-B2] (Eterna round: R96, puzzle: Exclusion NG 2) | 710 | 29 | 133 |  |  | 
UUAAUGGCUGUGAGGAUAUCGGAUAGAUAGAUAUUCGAGAAGGCACAUGAGGAUCACCCAUGUGUGAUCAGAGA [Brourd's EX4 #62] (Eterna round: R97, puzzle: Brourd's mod of Exclusion 4) | 466 |  | 144 |  |  | 
AUAAUGUCAGGAUAUCAGUCGUACAGCUGCGGCUGUACGACUGAGAAGGGACAUGAGGAUCACCCAUGUGGUCA [E4/6-A3] (Eterna round: R97, puzzle: Exclusion 4) | 20.2 |  | 236 |  |  | 
CGAUGUUAUGUCAGGAUAUGCGUUGCGAAAGCGAUGCAGAAGGGACAUGAGGAUCACCCAUGUCCUAACCAUCG [Omei A 7] (puzzle: Brourd's mod of Exclusion 4) |  |  |  |  | 10.7 | 
CGAUAAUCCUAGGAUAUGCUAGACGAAAGUCUAGCAGAAGGAGGAACAUGAGGAUCACCCAUGUGUCCUAAUCG [Mat - Exclusion 6 - Eli Mod - D17] (Eterna round: R97, puzzle: Exclusion 6) | 30.9 |  | 15.3 |  |  | 
GGUUGGCGAGGAUAUACAUGAGGAUCACCCAUGUGAAAAUAAAGUGAGGAAAAGAAAAGUAGAAGGCGCUGACG [Mat - Exclusion 3 - Mod of Salish D55] (puzzle: Exclusion 3) |  |  |  | 158 | 72.7 | 118
